Experimental data published in patent US9260500B2, “Peptide and use thereof” (Takeda Pharmaceutical Company Limited, priority 2009, dated 2016).
Non-standard residues stand in square brackets, D forms with d. Primed or numbered codes have the meaning given here. No end group written: not given here. *: point of attachment. Phe(4-F) = N[C@@H](Cc1ccc(F)cc1)C(=O)O; tBuAla = CC(C)(C)C[C@H](N)C(=O)O; 4Pal = N[C@@H](Cc1ccncc1)C(=O)O; d(pGlu) = O=C1CC[C@H](C(=O)O)N1; dHyp = O=C(O)[C@H]1C[C@H](O)CN1; Cha = N[C@@H](CC1CCCCC1)C(=O)O; Isobutyryl = CC(C)C(=O)*; PEG2′ = not defined here; Abu = CC[C@H](N)C(=O)O; Aib = CC(C)(N)C(=O)O; Aoc = NCCCCCCCC(=O)O; Inp = O=C(O)C1CCNCC1; Ahx = NCCCCCC(=O)O

What was measured:
human Y2 receptor [1] = biological target: T1, human Y2 receptor (Homo sapiens, UniProt P49146); test: Receptor Binding Assay (RBA) for Human Y2, [125I]-PYY displacement on hY2R/CHO membrane fraction; settings: IC50 of test compound/IC50 of PYY(3-36) (PYY(3-36) taken as 1)
T1 construct: expressed in transfected cells; membrane fraction
T1 sequence (P49146 1-381): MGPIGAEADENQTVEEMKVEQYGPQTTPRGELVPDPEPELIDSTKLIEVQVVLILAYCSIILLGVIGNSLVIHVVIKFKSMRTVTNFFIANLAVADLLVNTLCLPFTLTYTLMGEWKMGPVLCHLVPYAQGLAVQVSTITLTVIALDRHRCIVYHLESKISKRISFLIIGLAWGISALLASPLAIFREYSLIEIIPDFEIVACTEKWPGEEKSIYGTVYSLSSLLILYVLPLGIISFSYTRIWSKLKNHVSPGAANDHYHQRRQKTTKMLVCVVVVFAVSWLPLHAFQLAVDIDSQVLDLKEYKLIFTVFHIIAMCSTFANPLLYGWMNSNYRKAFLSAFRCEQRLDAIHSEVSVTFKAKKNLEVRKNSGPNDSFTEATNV
Method in brief: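 Read-out is [125I]-PYY displacement from membranes of CHO/dhfr− cells stably transfected with human Y2R. Membranes were obtained by disrupting cells in a buffer of 10 mM NaHCO3, 5 mM EDTA and protease inhibitors.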

human Y2 receptor [2] = biological target: T1, human Y2 receptor; test: Human Y2 Receptor G Protein Binding Assay (GBA), [35S]GTPγS; format: biochemical; settings: EC50 of test compound/EC50 of PYY(3-36) (PYY3-36 taken as 1), hY2R/CHO membrane fraction
Method in brief: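 Agonism measured as [35S]GTPγS binding, read by GF/C filtration and scintillation counting after 120 min at room temperature, using human Y2 membranes at 1 μg protein/mL in pH 7.4 Tris/MgCl2/NaCl/GDP buffer. Compound serially diluted 100 μM–1 nM; EC50 normalized to PYY(3-36) (ratio = compound/PYY).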

## Isobutanoyl-[Abu26, Cha27,36, Phe(4F)28, Aib31]-PYY(25-36) (Isobutyryl-R[Abu][Cha][Phe(4-F)]NL[Aib]TRQR[Cha]-NH2; SMILES CC[C@H](NC(=O)[C@H](CCCNC(=N)N)NC(=O)C(C)C)C(=O)N[C@@H](CC1CCCCC1)C(=O)N[C@@H](Cc1ccc(F)cc1)C(=O)N[C@@H](CC(N)=O)C(=O)N[C@@H](CC(C)C)C(=O)NC(C)(C)C(=O)N[C@H](C(=O)N[C@@H](CCCNC(=N)N)C(=O)N[C@@H](CCC(N)=O)C(=O)N[C@@H](CCCNC(=N)N)C(=O)N[C@@H](CC1CCCCC1)C(N)=O)[C@@H](C)O) [compound No. 79]
Human Y2 receptor [1]
  RBA IC50 Ratio: 23
Human Y2 receptor [2]
  GBA EC50 Ratio: 20

## Isobutanoyl-[Abu26, Cha27,36, Pya(4)28, Aib31]-PYY(25-36) (Isobutyryl-R[Abu][Cha][4Pal]NL[Aib]TRQR[Cha]-NH2; SMILES CC[C@H](NC(=O)[C@H](CCCNC(=N)N)NC(=O)C(C)C)C(=O)N[C@@H](CC1CCCCC1)C(=O)N[C@@H](Cc1ccncc1)C(=O)N[C@@H](CC(N)=O)C(=O)N[C@@H](CC(C)C)C(=O)NC(C)(C)C(=O)N[C@H](C(=O)N[C@@H](CCCNC(=N)N)C(=O)N[C@@H](CCC(N)=O)C(=O)N[C@@H](CCCNC(=N)N)C(=O)N[C@@H](CC1CCCCC1)C(N)=O)[C@@H](C)O) [compound No. 83]
Human Y2 receptor [1]
  RBA IC50 Ratio: 26
Human Y2 receptor [2]
  GBA EC50 Ratio: 22

## Isobutanoyl-[Abu26, Cha27,36, Ser28, Aib31]-PYY(25-36) (Isobutyryl-R[Abu][Cha]SNL[Aib]TRQR[Cha]-NH2; SMILES CC[C@H](NC(=O)[C@H](CCCNC(=N)N)NC(=O)C(C)C)C(=O)N[C@@H](CC1CCCCC1)C(=O)N[C@@H](CO)C(=O)N[C@@H](CC(N)=O)C(=O)N[C@@H](CC(C)C)C(=O)NC(C)(C)C(=O)N[C@H](C(=O)N[C@@H](CCCNC(=N)N)C(=O)N[C@@H](CCC(N)=O)C(=O)N[C@@H](CCCNC(=N)N)C(=O)N[C@@H](CC1CCCCC1)C(N)=O)[C@@H](C)O) [compound No. 102]
Human Y2 receptor [1]
  RBA IC50 Ratio: 49
Human Y2 receptor [2]
  GBA EC50 Ratio: 35

## Isobutanoyl-[Abu26, Gly27, Cha28,36, Aib31]-PYY(25-36) (Isobutyryl-R[Abu]G[Cha]NL[Aib]TRQR[Cha]-NH2; SMILES CC[C@H](NC(=O)[C@H](CCCNC(=N)N)NC(=O)C(C)C)C(=O)NCC(=O)N[C@@H](CC1CCCCC1)C(=O)N[C@@H](CC(N)=O)C(=O)N[C@@H](CC(C)C)C(=O)NC(C)(C)C(=O)N[C@H](C(=O)N[C@@H](CCCNC(=N)N)C(=O)N[C@@H](CCC(N)=O)C(=O)N[C@@H](CCCNC(=N)N)C(=O)N[C@@H](CC1CCCCC1)C(N)=O)[C@@H](C)O) [compound No. 95]
Human Y2 receptor [1]
  RBA IC50 Ratio: 70
Human Y2 receptor [2]
  GBA EC50 Ratio: 49

## Isobutanoyl-[Asp23, D-Hyp24, Cha27,28,36, Aib31]-PYY(23-36) (Isobutyryl-D[dHyp]RH[Cha][Cha]NL[Aib]TRQR[Cha]-NH2; SMILES CC(C)C[C@H](NC(=O)[C@H](CC(N)=O)NC(=O)[C@H](CC1CCCCC1)NC(=O)[C@H](CC1CCCCC1)NC(=O)[C@H](Cc1c[nH]cn1)NC(=O)[C@H](CCCNC(=N)N)NC(=O)[C@H]1C[C@H](O)CN1C(=O)[C@H](CC(=O)O)NC(=O)C(C)C)C(=O)NC(C)(C)C(=O)N[C@H](C(=O)N[C@@H](CCCNC(=N)N)C(=O)N[C@@H](CCC(N)=O)C(=O)N[C@@H](CCCNC(=N)N)C(=O)N[C@@H](CC1CCCCC1)C(N)=O)[C@@H](C)O) [compound No. 127]
Human Y2 receptor [1]
  RBA IC50 Ratio: 2.6
Human Y2 receptor [2]
  GBA EC50 Ratio: 3.1

## Isobutanoyl-[D-Pro24, Pya(4)26, Cha27,36, Aib28,31, Lys30]-PYY(23-36) (Isobutyryl-S[dP]R[4Pal][Cha][Aib]NK[Aib]TRQR[Cha]-NH2; SMILES CC(C)C(=O)N[C@@H](CO)C(=O)N1CCC[C@@H]1C(=O)N[C@@H](CCCNC(=N)N)C(=O)N[C@@H](Cc1ccncc1)C(=O)N[C@@H](CC1CCCCC1)C(=O)NC(C)(C)C(=O)N[C@@H](CC(N)=O)C(=O)N[C@@H](CCCCN)C(=O)NC(C)(C)C(=O)N[C@H](C(=O)N[C@@H](CCCNC(=N)N)C(=O)N[C@@H](CCC(N)=O)C(=O)N[C@@H](CCCNC(=N)N)C(=O)N[C@@H](CC1CCCCC1)C(N)=O)[C@@H](C)O) [compound No. 212]
Human Y2 receptor [1]
  RBA IC50 Ratio: 0.79
Human Y2 receptor [2]
  GBA EC50 Ratio: 0.89

## Isobutanoyl-[Glu23, D-Pro24, Pya(4)26, Cha27,36, Aib28,31, Lys30]-PYY(23-36) (Isobutyryl-E[dP]R[4Pal][Cha][Aib]NK[Aib]TRQR[Cha]-NH2; SMILES CC(C)C(=O)N[C@@H](CCC(=O)O)C(=O)N1CCC[C@@H]1C(=O)N[C@@H](CCCNC(=N)N)C(=O)N[C@@H](Cc1ccncc1)C(=O)N[C@@H](CC1CCCCC1)C(=O)NC(C)(C)C(=O)N[C@@H](CC(N)=O)C(=O)N[C@@H](CCCCN)C(=O)NC(C)(C)C(=O)N[C@H](C(=O)N[C@@H](CCCNC(=N)N)C(=O)N[C@@H](CCC(N)=O)C(=O)N[C@@H](CCCNC(=N)N)C(=O)N[C@@H](CC1CCCCC1)C(N)=O)[C@@H](C)O) [compound No. 214]
Human Y2 receptor [1]
  RBA IC50 Ratio: 1.9
Human Y2 receptor [2]
  GBA EC50 Ratio: 2.0

## Isobutanoyl-[Glu23, D-Pro24, Pya(4)26, Cha27,36, Leu(Me)28, Lys30, Aib31]-PYY(23-36) (Isobutyryl-E[dP]R[4Pal][Cha][tBuAla]NK[Aib]TRQR[Cha]-NH2; SMILES CC(C)C(=O)N[C@@H](CCC(=O)O)C(=O)N1CCC[C@@H]1C(=O)N[C@@H](CCCNC(=N)N)C(=O)N[C@@H](Cc1ccncc1)C(=O)N[C@@H](CC1CCCCC1)C(=O)N[C@@H](CC(C)(C)C)C(=O)N[C@@H](CC(N)=O)C(=O)N[C@@H](CCCCN)C(=O)NC(C)(C)C(=O)N[C@H](C(=O)N[C@@H](CCCNC(=N)N)C(=O)N[C@@H](CCC(N)=O)C(=O)N[C@@H](CCCNC(=N)N)C(=O)N[C@@H](CC1CCCCC1)C(N)=O)[C@@H](C)O) [compound No. 170]
Human Y2 receptor [1]
  RBA IC50 Ratio: 0.43
Human Y2 receptor [2]
  GBA EC50 Ratio: 0.88

## N-4-Pyridiniyl-[Pic(4)23, D-Pro24, Cha27,28,36, Aib31]-PYY(23-36) ([Inp][dP]RH[Cha][Cha]NL[Aib]TRQR[Cha]-NH2; not fully specified (N-terminus); printed as N-4-Pyridiniyl-[Pic(4)23, D-Pro24, Cha27,28,36, Aib31]-PYY(23-36)) [compound No. 125]
Human Y2 receptor [1]
  RBA IC50 Ratio: 4
Human Y2 receptor [2]
  GBA EC50 Ratio: 3.4

## Piperidinocarbonyl-[Glu23, D-Pro24, Pya(4)26, Cha27,36, Aib28,31, Lys30]-PYY(23-36) (piperidinocarbonyl-E[dP]R[4Pal][Cha][Aib]NK[Aib]TRQR[Cha]-NH2) [compound No. 193]
Human Y2 receptor [1]
  RBA IC50 Ratio: 3.3
Human Y2 receptor [2]
  GBA EC50 Ratio: 2.4

## [(PEG2)23, D-Pro24, Cha27,28,36, Aib31]-PYY(23-36) ([PEG2′][dP]RH[Cha][Cha]NL[Aib]TRQR[Cha]-NH2) [compound No. 118]
Human Y2 receptor [1]
  RBA IC50 Ratio: 0.9
Human Y2 receptor [2]
  GBA EC50 Ratio: 0.9

## [Acp23, D-Pro24, Pya(4)26, Cha27,36, Aib28,31, Lys30]-PYY(23-36) (Ac-[Ahx][dP]R[4Pal][Cha][Aib]NK[Aib]TRQR[Cha]-NH2) [compound No. 304]
Human Y2 receptor [1]
  RBA IC50 Ratio: 0.32
Human Y2 receptor [2]
  GBA EC50 Ratio: 1.1

## [Aoc(8)23, D-Pro24, Cha27,28,36, Aib31]-PYY(23-36) ([Aoc][dP]RH[Cha][Cha]NL[Aib]TRQR[Cha]-NH2; N-terminus assumed; SMILES CC(C)C[C@H](NC(=O)[C@H](CC(N)=O)NC(=O)[C@H](CC1CCCCC1)NC(=O)[C@H](CC1CCCCC1)NC(=O)[C@H](Cc1c[nH]cn1)NC(=O)[C@H](CCCNC(=N)N)NC(=O)[C@H]1CCCN1C(=O)CCCCCCCN)C(=O)NC(C)(C)C(=O)N[C@H](C(=O)N[C@@H](CCCNC(=N)N)C(=O)N[C@@H](CCC(N)=O)C(=O)N[C@@H](CCCNC(=N)N)C(=O)N[C@@H](CC1CCCCC1)C(N)=O)[C@@H](C)O) [compound No. 117]
Human Y2 receptor [1]
  RBA IC50 Ratio: 2.1
Human Y2 receptor [2]
  GBA EC50 Ratio: 1.9

## [D-Ser23, Abu26, Cha27,28,36, Aib31]-PYY(23-36) ([dS]LR[Abu][Cha][Cha]NL[Aib]TRQR[Cha]-NH2; N-terminus assumed; SMILES CC[C@H](NC(=O)[C@H](CCCNC(=N)N)NC(=O)[C@H](CC(C)C)NC(=O)[C@H](N)CO)C(=O)N[C@@H](CC1CCCCC1)C(=O)N[C@@H](CC1CCCCC1)C(=O)N[C@@H](CC(N)=O)C(=O)N[C@@H](CC(C)C)C(=O)NC(C)(C)C(=O)N[C@H](C(=O)N[C@@H](CCCNC(=N)N)C(=O)N[C@@H](CCC(N)=O)C(=O)N[C@@H](CCCNC(=N)N)C(=O)N[C@@H](CC1CCCCC1)C(N)=O)[C@@H](C)O) [compound No. 85]
Human Y2 receptor [1]
  RBA IC50 Ratio: 15
Human Y2 receptor [2]
  GBA EC50 Ratio: 11

## [D-pGlu24, Pya(4)26, Cha27,36, Aib28,31, Lys30]-PYY(24-36) ([d(pGlu)]R[4Pal][Cha][Aib]NK[Aib]TRQR[Cha]-NH2; SMILES C[C@@H](O)[C@H](NC(=O)C(C)(C)NC(=O)[C@H](CCCCN)NC(=O)[C@H](CC(N)=O)NC(=O)C(C)(C)NC(=O)[C@H](CC1CCCCC1)NC(=O)[C@H](Cc1ccncc1)NC(=O)[C@H](CCCNC(=N)N)NC(=O)[C@H]1CCC(=O)N1)C(=O)N[C@@H](CCCNC(=N)N)C(=O)N[C@@H](CCC(N)=O)C(=O)N[C@@H](CCCNC(=N)N)C(=O)N[C@@H](CC1CCCCC1)C(N)=O) [compound No. 250]
Human Y2 receptor [1]
  RBA IC50 Ratio: 2
Human Y2 receptor [2]
  GBA EC50 Ratio: 1.1
